Results taken from PMC12663309, “NEK7 couples SDHB to orchestrate respiratory chain electron transport homeostasis that impedes liver fibrosis” (Nature Communications, 2025).

Biological target: T1, human NEK7 recombinant protein (HY-P75935, MCE) (human, UniProt Q8TDX7 1-302, RED-NHS dye label (in the MST only))
T1 construct: NEK7, human, commercially sourced recombinant protein; the vendor's catalogue entry would tell them; source: bought: MCE (HY-P75935), recombinant, purity 94%
Test: SPR; Biacore T200; NEK7 or NEK7-mut immobilised by amine coupling; SDHB flowed at different concentrations; 1:1 Langmuir binding model
Settings: both partners purified

T1 sequence (Q8TDX7 whole entry, one chain of several): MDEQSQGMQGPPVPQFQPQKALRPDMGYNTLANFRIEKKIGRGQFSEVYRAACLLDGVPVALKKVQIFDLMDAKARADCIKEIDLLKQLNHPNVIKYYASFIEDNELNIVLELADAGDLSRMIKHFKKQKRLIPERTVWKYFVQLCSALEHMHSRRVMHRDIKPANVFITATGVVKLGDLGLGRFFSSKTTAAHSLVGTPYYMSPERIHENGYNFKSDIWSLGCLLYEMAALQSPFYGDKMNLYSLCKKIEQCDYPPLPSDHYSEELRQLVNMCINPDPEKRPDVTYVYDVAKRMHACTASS

B1: human SDHB recombinant protein (Ag29868, Proteintech) (natural protein, UniProt P21912 29-280, looked up)
chain: AQTAAATAPRIKKFAIYRWDPDKAGDKPHMQTYEVDLNKCGPMVLDALIKIKNEVDSTLTFRRSCREGICGSCAMNINGGNTLACTRRIDTNLNKVSKIYPLPHMYVIKDLVPDLSNFYAQYKSIEPYLKKKDESQEGKQQYLQSIEEREKLDGLYECILCACCSTSCPSYWWNGDKYLGPAVLMQAYRWMIDSRDDFTEERLAKLQDPFSLYRCHTIMNCTRTCPKGLNPGKAIAEIKKMMATYKEKKASV
notes: SDHB, human, commercially sourced recombinant protein; the vendor's catalogue entry would tell them (such antigen proteins may be tagged fragments); source: bought: Proteintech (Ag29868), recombinant, purity 80%
Kd: 349 nM
